From PMC8175363

Target: unspliced Pyrococcus horikoshii PolII intein fusion protein NIHPho (N-extein M-H-A-A-K-R-N, 166-residue intein, C-extein C-D-G-D-E-D-His6) (Pyrococcus horikoshii) (UniProt O57861)
Experiment: crystal structure; sitting drop vapour diffusion; protein about 3 mg/ml in 20 mM Tris pH 8.0, 100 mM NaCl; reservoir 0.1 M Tris HCl pH 8.5, 1.8 M ammonium sulfate, 0.1 M sodium chloride, 1% glycerol; data at 100 K; phased by SAD with the Se-Met derivative

**Q.** How did the stoichiometry N turn out when “unspliced Pyrococcus horikoshii PolII intein fusion protein NIHPho (N-extein M-H-A-A-K-R-N, 166-residue intein, C-extein C-D-G-D-E-D-His6) (from UniProt O57861 945-1123) (domain or fragment)” was run?
**A.** 2
